In test [1] the target is T1, Flag-mCherry-ColErw-Cys-6His (Pectobacterium carotovorum). The experiment in a line: EIA 8 plex n° 1: colicin coated at 100 nM, Im-RLuc8 alone at 100 nM, luciferase signal.
The target of test [2] is T2, Flag-EmGFP-ColE7-6His (Escherichia coli).
T2 construct: also called Colicin E7
The test is described as above.

Test [3] has as its target T3, Flag-mCherry-ColE9-6His (Escherichia coli).
T3 construct: also called Colicin E9
The test is described as above.

The target in test [4] is Flag-mCherry-ColSyr-Cys-6His (Pseudomonas syringae B728A). The experiment in a line: EIA 8 plex n° 1: colicin coated at 100 nM, Im-RLuc8 at 100 nM, luminescence; light bar alone, dark bar with the 7 other unfused Im proteins.
Test [5] addresses Flag-mCherry-ColKhan-Cys-6His (Photorhabdus khanii). The description is as above.
In test [6] the target is T4, Flag-EmGFP-ColE2-6His (Escherichia coli).
T4 construct: Coated on the plate or sprayed on the membrane; also called Colicin E2
The experiment in a line: kinetics, literature value (Li W. et al., 2004) printed above the bar pair; unit from the legend paragraph 10.

In test [7] the target is T2, Flag-EmGFP-ColE7-6His. The description is as above.
Test [8] concerns the target T3, Flag-mCherry-ColE9-6His. Described as above.
The target in test [9] is T5, Flag-mCherry-ColAP41-Cys-6His (Pseudomonas aeruginosa AP41). The experiment in a line: EIA 8 plex n° 2: colicin coated at 100 nM, Im-RLuc8 at 100 nM, luminescence; light bar alone, dark bar with the 7 other unfused Im proteins.
The target in test [10] is T6, Flag-mCherry-ColE8-6His (Escherichia coli).
T6 construct: also called Colicin E8
The experiment in a line: EIA 8 plex n° 1: colicin coated at 100 nM, Im-RLuc8 alone at 100 nM, luciferase signal (FIG. 3, light grey bars).

Test [11] concerns the target T6, Flag-mCherry-ColE8-6His. The experiment in a line: EIA 4 plex: colicin coated at 100 nM, Im-RLuc8 alone at 100 nM, luciferase signal (FIG. 1, light grey bars).
In test [12] the target is T7, Flag-mCherry-ColLeaf-Cys-6His (Pseudomonas sp Leaf83). The experiment in a line: EIA 8 plex n° 2: colicin coated at 100 nM, Im-RLuc8 alone at 100 nM, luciferase signal.
Test [13] deals with T6, Flag-mCherry-ColE8-6His. The experiment in a line: EIA 8 plex n° 2: colicin coated at 100 nM, Im-RLuc8 alone at 100 nM, luciferase signal (FIG. 4, light grey bars).
Test [14] concerns the target T5, Flag-mCherry-ColAP41-Cys-6His. The experiment in a line: EIA 8 plex n° 1: colicin coated at 100 nM, Im-RLuc8 at 100 nM, luminescence; light bar alone, dark bar with the 7 other unfused Im proteins.
Test [15] has as its target T1, Flag-mCherry-ColErw-Cys-6His. The description is as above.
Test [16] addresses T6, Flag-mCherry-ColE8-6His. The experiment in a line: EIA: colicin coated at 100 nM, Im-RLuc8 at 100 nM, luminescence; light bar alone, dark bar with the 3 other unfused Im proteins.
Test [17] concerns the target T2, Flag-EmGFP-ColE7-6His. The experiment in a line: EIA 8 plex n° 1: colicin coated at 100 nM, Im-RLuc8 alone at 100 nM, luciferase signal (FIG. 3, light grey bars).
The target in test [18] is T2, Flag-EmGFP-ColE7-6His. The experiment in a line: EIA 4 plex: colicin coated at 100 nM, Im-RLuc8 alone at 100 nM, luciferase signal (FIG. 1, light grey bars).
Test [19] has as its target T6, Flag-mCherry-ColE8-6His. The experiment in a line: kinetics, literature value (Li W. et al., 2004) printed above the bar pair; unit from the legend paragraph 10.
Test [20] concerns the target T1, Flag-mCherry-ColErw-Cys-6His. The experiment in a line: EIA 8 plex n° 2: colicin coated at 100 nM, Im-RLuc8 at 100 nM, luminescence; light bar alone, dark bar with the 7 other unfused Im proteins.
Test [21] concerns the target T7, Flag-mCherry-ColLeaf-Cys-6His. Described as above.
Test [22] addresses T4, Flag-EmGFP-ColE2-6His. The experiment in a line: EIA 8 plex n° 1: colicin coated at 100 nM, Im-RLuc8 alone at 100 nM, luciferase signal (FIG. 3, light grey bars).
In test [23] the target is T4, Flag-EmGFP-ColE2-6His. The experiment in a line: EIA 4 plex: colicin coated at 100 nM, Im-RLuc8 alone at 100 nM, luciferase signal (FIG. 1, light grey bars).
The target in test [24] is T4, Flag-EmGFP-ColE2-6His. The experiment in a line: EIA 8 plex n° 2: colicin coated at 100 nM, Im-RLuc8 alone at 100 nM, luciferase signal (FIG. 4, light grey bars).

Bounds are passed on as bounds.

B1: Myc-RLuc8-Im8-6His (other)
chain: MGGEQKLISEEDLGGSASKVYDPEQRKRMITGPQWWARCKQMNVLDSFINYYDSEKHAENAVIFLHGNATSSYLWRHVVPHIEPVARCIIPDLIGMGKSGKSGNGSYRLLDHYKYLTAWFELLNLPKKIIFVGHDWGAALAFHYAYEHQDRIKAIVHMESVVDVIESWDEWPDIEEDIALIKSEEGEKMVLENNFFVETVLPSKIMRKLEPEEFAAYLEPFKEKGEVRRPTLSWPREIPLVKGGKPDVVQIVRNYNAYLRASDDLPKLFIESDPGFFSNAIVEGAKKFPNTEFVKVKGLHFLQEDAPDEMGKYIKSFVERVLKNEQKLELKNSISDYTETEFKKIIEDIINCEGDEKKQDDNLEHFISVTEHPSGSDLIYYPEGNNDGSPEAVIKEIKEWRAANGKSGFKQGLEGGGSHHHHHH
notes: Immunity protein fused to the luciferase RLuc8 as reporter; added in solution; also called Im8-RLuc8; Im8-Rluc8
Take B1: the RLU is over 100000 RLU in test [1]; over 100000 RLU in [2]; over 100000 RLU in test [3]; over 2e+06 RLU in test [10]; over 400000 RLU in [11]; over 100000 RLU in [12]. Further, the RLU in test [13] was over 2.4e+06 RLU. The binding result in test [4], in [5] and in test [9] was “no binding (tested: 100 nM)” in each case. In addition, the Kd was 38 nM in test [6], 0.37 nM in test [7] and 500 nM in test [8].

B2: Myc-RLuc8-Im7-6His (other)
chain: MGGEQKLISEEDLGGSASKVYDPEQRKRMITGPQWWARCKQMNVLDSFINYYDSEKHAENAVIFLHGNATSSYLWRHVVPHIEPVARCIIPDLIGMGKSGKSGNGSYRLLDHYKYLTAWFELLNLPKKIIFVGHDWGAALAFHYAYEHQDRIKAIVHMESVVDVIESWDEWPDIEEDIALIKSEEGEKMVLENNFFVETVLPSKIMRKLEPEEFAAYLEPFKEKGEVRRPTLSWPREIPLVKGGKPDVVQIVRNYNAYLRASDDLPKLFIESDPGFFSNAIVEGAKKFPNTEFVKVKGLHFLQEDAPDEMGKYIKSFVERVLKNEQKLELKNSISDYTEAEFVQLLKEIEKENVAATDDVLDVLLEHFVKITEHPDGTDLIYYPSDNRDDSPEGIVKEIKEWRAANGKPGFKQGLEGGGSHHHHHH
notes: Immunity protein fused to the luciferase RLuc8 as reporter; added in solution; also called Im7-RLuc8; Im7-Rluc8
On to B2, for which the binding result is listed as “no binding (tested: 100 nM)” in test [4]; “no binding (tested: 100 nM)” in [14]; “no binding (tested: 100 nM)” in test [15]; “no binding (tested: 100 nM)” in test [5]; “binds” in test [16]. For the same molecule, the Kd in test [6] was 14 nM; in test [8] it was about 100000 nM. Moreover, the results for the RLU in test [17] and in test [18] were over 2e+06 RLU and over 400000 RLU, respectively.

B3: Myc-RLuc8-Im2-6His (other)
chain: MGGEQKLISEEDLGGSASKVYDPEQRKRMITGPQWWARCKQMNVLDSFINYYDSEKHAENAVIFLHGNATSSYLWRHVVPHIEPVARCIIPDLIGMGKSGKSGNGSYRLLDHYKYLTAWFELLNLPKKIIFVGHDWGAALAFHYAYEHQDRIKAIVHMESVVDVIESWDEWPDIEEDIALIKSEEGEKMVLENNFFVETVLPSKIMRKLEPEEFAAYLEPFKEKGEVRRPTLSWPREIPLVKGGKPDVVQIVRNYNAYLRASDDLPKLFIESDPGFFSNAIVEGAKKFPNTEFVKVKGLHFLQEDAPDEMGKYIKSFVERVLKNEQKLELKHSISDYTEAEFLEFVKKICRAEGATEEDDNKLVREFERLTEHPDGSDLIYYPRDDREDSPEGIVKEIKEWRAANGKSGFKQGLEGGGSHHHHHH
notes: Immunity protein fused to the luciferase RLuc8 as reporter; added in solution; also called Im2-RLuc8; Im2-Rluc8
Take B3: the binding result in test [4], in [14], in test [5], in test [20] and in test [21] was “no binding (tested: 100 nM)” throughout. Moreover, the Kd in [19] turned out to be 18 nM; in test [6] it was 3.9e-06 nM; in test [7], 0.36 nM. The RLU in test [22] was over 2e+06 RLU; in test [23], over 400000 RLU; in [24], over 2.4e+06 RLU.

A word on the Kd: it is the equilibrium constant for the complex coming apart. Lower therefore signals a tighter complex.

Values taken from patent publication US20210373004A1 (BIOASTER, published 2021).
